Data reported in US20200148732A1 (UNIVERSITY OF COPENHAGEN, published 2020).
Where no end group is shown, it is not given here.

T1: TONSL Ankyrin Repeat Domain (ARD, residues 512-692), purified recombinant (human, UniProt Q96HA7 512-692)
T1 construct: Expressed as a GST fusion in E. coli; Used in ITC, peptide pull-down and native MS; also called TONSL ARD; TONSL-ARD
T1 sequence: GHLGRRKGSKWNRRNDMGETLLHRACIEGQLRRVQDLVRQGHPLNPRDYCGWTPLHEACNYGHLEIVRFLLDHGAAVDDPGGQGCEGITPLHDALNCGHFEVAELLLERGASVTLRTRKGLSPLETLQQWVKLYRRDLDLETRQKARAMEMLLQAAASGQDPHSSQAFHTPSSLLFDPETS

T2: TONSL acidic stretch and ARD (aa. 450-692) (human, UniProt Q96HA7 450-692)
T2 sequence: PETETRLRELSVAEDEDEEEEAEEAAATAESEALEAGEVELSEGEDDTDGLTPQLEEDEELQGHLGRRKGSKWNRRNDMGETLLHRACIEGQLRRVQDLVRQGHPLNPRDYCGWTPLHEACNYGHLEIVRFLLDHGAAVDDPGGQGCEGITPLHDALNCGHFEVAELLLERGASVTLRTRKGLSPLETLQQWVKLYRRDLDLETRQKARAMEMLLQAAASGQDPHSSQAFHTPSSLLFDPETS


Assays:
[1] = target: T1, TONSL Ankyrin Repeat Domain (ARD, …); assay: native MS, apparent Kd
[2] = target: T1, TONSL Ankyrin Repeat Domain (ARD, …); assay: native MS, abundance of the 1:1 protein-peptide complex, 10 µM TONSL ARD
Description: (§1) The mass spectrometry (MS) analysis were carried out on an electrospray time-of-flight mass spectrometer (LCT, Waters, Manchester, UK) equipped with an automated chip-based nanoESI device (Triversa Nanomate, Advion Biosciences, Ithaca, N.Y.). External calibration was done in the positive ion mode over the mass range m/z 200-6000 using the multiply charged ions produced by 0.4 μM horse heart myoglobin solution diluted in water/acetonitrile 50/50 mixture acidified with 0.5% (v/v) formic acid. […] The protein concentration was set to 10 μM and different peptide concentrations ranging from 1 to 5 molar equivalents were added. Incubations were performed at room temperature for 15 min. Mass spectra were recorded using reduced cone voltage (Vc=50 V) and elevated interface pressure (Pi=5 mbar) which correspond to fine-tuned instrumental settings providing sufficient ion desolvation while preserving the integrity of weak non-covalent complexes in the gas phase. Micromass MassLynx 4.1 was used for data acquisition and processing.
The proportion of 1:1 stoichiometry complex is calculated according to the following equation: […]

[3] = target: T1, TONSL Ankyrin Repeat Domain (ARD, …); assay: native MS, titration Kd (constant peptide to protein ratio, decreasing protein concentration)
Description: as §1, with “The protein concentration was set to 10 μM and different peptide concentrations ranging from 1 to 5 molar equivalents were added.” left out
(§2) This protein proportion is used to calculate the bound protein, the free protein and the free peptide concentrations. The Kd is calculated by using the following equation for each protein/peptide concentration. The final Kd for each peptide is the average of the Kd at different protein/peptide ratio.

[4] = target: T1, TONSL Ankyrin Repeat Domain (ARD, …); assay: native MS, titration Kd (constant peptide to protein ratio, decreasing protein concentration); Titration Kd; no apparent Kd given for Example 11
Description: as §1, with “The protein concentration was set to 10 μM and different peptide concentrations ranging from 1 to 5 molar equivalents were added.” left out
as §2

[5] = target: T3, MCM2 Histone-binding Domain (HBD, residues 61-130) (human, UniProt P49736 61-130); assay: GST pull-down of recombinant H3-H4 and MCM2 HBD with GST-TONSL ARD, stained gel (MCM2 HBD offered together with H3-H4)
T3 construct: In the crystal it is linked to TONSL ARD by the G4 linker; also called MCM2 HBD

[6] = target: T2, TONSL acidic stretch and ARD (aa. …); assay: ITC, peptide injected into TONSL (450-692); the value stands without a heading in the legend box, in the column where the other peptide has NB
[7] = target: T1, TONSL Ankyrin Repeat Domain (ARD, …); assay: ITC, peptide injected into TONSL ARD

T3 sequence (P49736 61-130): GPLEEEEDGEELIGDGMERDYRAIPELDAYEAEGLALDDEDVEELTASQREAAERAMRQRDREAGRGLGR

| Binder | Kd [1] [nM] | % P1L1 [2] [%] | binding result [5] | also measured |
| --- | --- | --- | --- | --- |
| AKRHRKVLR-NH2 [Ala-Lys-Arg-His-Arg-Lys-Val-Leu-Arg-NH2, Example 12] | 2200 | 62.6 |  | Kd [3]: 1950 nM |
| LGKGGAKRHRKVLRDNI (C-terminal amide (-NH2), Bought from JPT Peptide Technologies) |  |  |  | Kd [4]: 77 nM |
| GST-TONSL ARD D559A (other, not shown: GST tag of the pGEX-6P-1 vector) GHLGRRKGSKWNRRNDMGETLLHRACIEGQLRRVQDLVRQGHPLNPRAYCGWTPLHEACNYGHLEIVRFLLDHGAAVDDPGGQGCEGITPLHDALNCGHFEVAELLLERGASVTLRTRKGLSPLETLQQWVKLYRRDLDLETRQKARAMEMLLQAAASGQDPHSSQAFHTPSSLLFDPETS |  |  | no binding |  |
| GST-TONSL ARD D604A (other, not shown: GST tag of the pGEX-6P-1 vector) GHLGRRKGSKWNRRNDMGETLLHRACIEGQLRRVQDLVRQGHPLNPRDYCGWTPLHEACNYGHLEIVRFLLDHGAAVDDPGGQGCEGITPLHAALNCGHFEVAELLLERGASVTLRTRKGLSPLETLQQWVKLYRRDLDLETRQKARAMEMLLQAAASGQDPHSSQAFHTPSSLLFDPETS |  |  | no binding |  |
| GST-TONSL ARD N571A (other, not shown: GST tag of the pGEX-6P-1 vector) GHLGRRKGSKWNRRNDMGETLLHRACIEGQLRRVQDLVRQGHPLNPRDYCGWTPLHEACAYGHLEIVRFLLDHGAAVDDPGGQGCEGITPLHDALNCGHFEVAELLLERGASVTLRTRKGLSPLETLQQWVKLYRRDLDLETRQKARAMEMLLQAAASGQDPHSSQAFHTPSSLLFDPETS |  |  | no binding |  |
| GST-TONSL ARD E568A (other, not shown: GST tag of the pGEX-6P-1 vector) GHLGRRKGSKWNRRNDMGETLLHRACIEGQLRRVQDLVRQGHPLNPRDYCGWTPLHAACNYGHLEIVRFLLDHGAAVDDPGGQGCEGITPLHDALNCGHFEVAELLLERGASVTLRTRKGLSPLETLQQWVKLYRRDLDLETRQKARAMEMLLQAAASGQDPHSSQAFHTPSSLLFDPETS |  |  | no binding |  |
| GST-TONSL ARD E530A (other, not shown: GST tag of the pGEX-6P-1 vector) GHLGRRKGSKWNRRNDMGATLLHRACIEGQLRRVQDLVRQGHPLNPRDYCGWTPLHEACNYGHLEIVRFLLDHGAAVDDPGGQGCEGITPLHDALNCGHFEVAELLLERGASVTLRTRKGLSPLETLQQWVKLYRRDLDLETRQKARAMEMLLQAAASGQDPHSSQAFHTPSSLLFDPETS |  |  | no binding |  |
| GST-TONSL ARD W563A (other, not shown: GST tag of the pGEX-6P-1 vector) GHLGRRKGSKWNRRNDMGETLLHRACIEGQLRRVQDLVRQGHPLNPRDYCGATPLHEACNYGHLEIVRFLLDHGAAVDDPGGQGCEGITPLHDALNCGHFEVAELLLERGASVTLRTRKGLSPLETLQQWVKLYRRDLDLETRQKARAMEMLLQAAASGQDPHSSQAFHTPSSLLFDPETS |  |  | no binding |  |
| GLGKGGAKRHRKVLRDN (Synthesised at Tufts University Core Facility; also called H4 (9-25); H4 tail (9-25)) [histone H4 (residues 9-25) peptide, unmodified] |  |  |  | Kd [6]: 1500 nM |
| GLGKGGAKRWRKVLRDN (His18 mutated to Trp18) [histone H4 (residues 9-25) peptide H18W] |  |  |  | binding result [7]: no binding (tested: molar ratio about 1.8) |
| KGGAKRHRKVLR-NH2 [Lys-Gly-Gly-Ala-Lys-Arg-His-Arg-Lys-Val-Leu-Arg-NH2, Example 13] | 100 | 89.9 |  | Kd [3]: 310 nM |
| KGGAARHRKVLR-NH2 (H4 12-23 with Lys16 replaced by Ala) [Lys-Gly-Gly-Ala-Ala-Arg-His-Arg-Lys-Val-Leu-Arg-NH2, Example 15] | 400 | 81.4 |  |  |
| KGGAKRHAKVLR-NH2 (H4 12-23 with Arg19 replaced by Ala) [Lys-Gly-Gly-Ala-Lys-Arg-His-Ala-Lys-Val-Leu-Arg-NH2, Example 14] | 1000 | 73.3 |  | Kd [3]: 960 nM |
